# Source: article doi:10.1101/2020.02.12.946020
# B1: 40 nt poly-dT ssDNA (dT40) (ssDNA)
# DNA: TTTTTTTTTTTTTTTTTTTTTTTTTTTTTTTTTTTTTTTT
# Molecular target: hMutLγ (MLH1-MLH3) (human, UniProt P40692;Q9UHC1 1-756;1-1453)
# Assay: EMSA
# Sequence of hMutLγ (MLH1-MLH3) (P40692 whole entry, chain 1 of 2): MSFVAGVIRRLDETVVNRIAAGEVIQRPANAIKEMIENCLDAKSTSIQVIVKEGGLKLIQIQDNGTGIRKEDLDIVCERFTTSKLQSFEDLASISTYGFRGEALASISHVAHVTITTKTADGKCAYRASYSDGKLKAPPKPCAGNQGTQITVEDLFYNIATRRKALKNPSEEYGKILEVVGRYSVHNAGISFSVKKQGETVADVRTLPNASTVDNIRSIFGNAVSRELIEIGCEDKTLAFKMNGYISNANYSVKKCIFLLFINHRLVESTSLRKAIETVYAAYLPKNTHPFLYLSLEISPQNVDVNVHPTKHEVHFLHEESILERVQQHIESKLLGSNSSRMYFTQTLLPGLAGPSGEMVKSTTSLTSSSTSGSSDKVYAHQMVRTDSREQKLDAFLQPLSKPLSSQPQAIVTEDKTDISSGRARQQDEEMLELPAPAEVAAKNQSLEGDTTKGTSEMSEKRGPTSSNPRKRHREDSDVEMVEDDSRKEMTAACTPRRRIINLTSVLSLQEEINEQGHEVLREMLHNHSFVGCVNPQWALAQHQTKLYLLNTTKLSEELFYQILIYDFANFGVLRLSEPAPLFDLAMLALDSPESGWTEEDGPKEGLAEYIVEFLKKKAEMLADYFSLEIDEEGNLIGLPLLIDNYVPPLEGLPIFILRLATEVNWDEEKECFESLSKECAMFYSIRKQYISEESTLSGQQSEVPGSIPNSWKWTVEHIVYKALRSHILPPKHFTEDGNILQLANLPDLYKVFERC
# Sequence of hMutLγ (MLH1-MLH3) (Q9UHC1 whole entry, chain 2 of 2): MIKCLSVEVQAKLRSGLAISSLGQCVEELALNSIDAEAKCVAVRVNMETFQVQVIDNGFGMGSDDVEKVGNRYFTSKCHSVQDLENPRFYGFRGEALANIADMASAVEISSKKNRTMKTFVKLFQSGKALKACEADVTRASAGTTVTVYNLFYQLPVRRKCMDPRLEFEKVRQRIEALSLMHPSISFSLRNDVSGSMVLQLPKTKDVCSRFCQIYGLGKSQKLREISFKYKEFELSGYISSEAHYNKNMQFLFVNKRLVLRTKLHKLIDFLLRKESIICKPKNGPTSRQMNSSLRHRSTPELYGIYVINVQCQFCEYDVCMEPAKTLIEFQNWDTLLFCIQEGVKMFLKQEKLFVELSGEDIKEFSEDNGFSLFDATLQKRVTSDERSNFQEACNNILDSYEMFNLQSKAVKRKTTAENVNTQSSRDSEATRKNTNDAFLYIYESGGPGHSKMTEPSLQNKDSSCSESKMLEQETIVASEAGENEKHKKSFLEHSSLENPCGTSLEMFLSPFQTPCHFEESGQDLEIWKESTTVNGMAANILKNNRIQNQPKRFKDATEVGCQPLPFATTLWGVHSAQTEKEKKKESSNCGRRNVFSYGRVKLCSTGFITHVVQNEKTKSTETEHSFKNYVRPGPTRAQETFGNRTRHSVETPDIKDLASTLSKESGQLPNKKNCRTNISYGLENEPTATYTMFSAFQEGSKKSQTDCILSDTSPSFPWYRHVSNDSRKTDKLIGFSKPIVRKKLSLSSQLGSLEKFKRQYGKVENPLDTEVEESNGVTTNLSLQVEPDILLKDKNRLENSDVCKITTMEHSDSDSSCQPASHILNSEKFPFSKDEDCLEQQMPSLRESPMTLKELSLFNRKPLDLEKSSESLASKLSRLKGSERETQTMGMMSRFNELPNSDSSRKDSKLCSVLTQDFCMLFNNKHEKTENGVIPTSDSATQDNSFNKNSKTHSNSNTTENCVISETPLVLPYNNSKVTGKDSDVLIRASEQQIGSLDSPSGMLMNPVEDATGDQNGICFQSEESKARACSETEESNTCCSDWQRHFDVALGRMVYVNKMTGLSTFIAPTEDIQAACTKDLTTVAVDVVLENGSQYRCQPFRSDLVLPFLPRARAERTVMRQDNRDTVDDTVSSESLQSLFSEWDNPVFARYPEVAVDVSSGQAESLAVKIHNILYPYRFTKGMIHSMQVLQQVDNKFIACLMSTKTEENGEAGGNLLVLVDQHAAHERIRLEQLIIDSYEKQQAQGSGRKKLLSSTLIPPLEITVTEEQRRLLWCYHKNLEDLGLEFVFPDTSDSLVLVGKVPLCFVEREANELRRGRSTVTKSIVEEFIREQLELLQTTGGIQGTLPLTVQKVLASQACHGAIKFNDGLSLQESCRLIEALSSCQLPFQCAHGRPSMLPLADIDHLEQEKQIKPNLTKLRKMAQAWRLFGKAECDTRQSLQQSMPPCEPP
binder,measurement,value
B1,binding result,binds
